Three molecules from patent US20190352664A1, “COMPOSITIONS AND METHODS FOR CONTROLLING GENE EXPRESSION” (priority 2017, published 2019) can be followed below.

One series relates to dual luciferase reporter. As to the kind of experiment: Dual luciferase assay (LUC/RLUC), transient expression. It is filed as in vivo, N. benthamiana. The note with it: 5′ leader sequence reporters.
A further series relates to LUC, GFPER, TBF1-YFP. As to the kind of experiment: Transient expression of uORF-controlled LUC, GFPER and TBF1-YFP. The class given is in vivo, N. benthamiana.
In another series the test system is LUC reporter. It is filed as in vivo, Oryza sativa cultivar ZH11.

B1: BET10: R-motif-dependent gene; 5′ leader sequence tested in dual luciferase reporter (nucleic acid, listed as Arabidopsis thaliana)
DNA: TTAGGGACGGGACACTAGAGAAGGGAGGGCAGAGAGCGATTTTGTTCTCTCTCTACTTCTCGGTCGTCTTCTTCGTCTCCACTCTAGGGTTTTACTCTATCTTCTTCTTCATCATCATCTTCTACACCAATCTCTAGCGTTAATCTGTTTCTGCTGGAGAAGATTTACGCTTGTTCCTCGGTTCTCTTACTTCTGCTCCGGTTCGATCGCTTGCTAAGTGTTTCGAGTTGGTTCGCACTTCGGTGGGCGATATC
As to B1, the “TE when PAB2 was co-expressed” value in the series with dual luciferase reporter is on record as “lower TE”.

B2: uORFsTBF1: 5′ leader sequence of TBF1 with two pathogen-responsive upstream open reading frames (nucleic acid)
DNA: TCTAGAAACAGCATCCGTTTTTATAATTTAATTTTCTTACAAAGGTAGGACCAACATTTGTGATCTATAAATCTTCCTACTACGTTATATAGAGACCCTTCGACATAACACTTAACTCGTTTATATATTTGTTTTACTTGTTTTGCACATACACACAAAAATAAAAAAGACTTTATATTTATTTACTTTTTAATCACACGGATTAGCTCCGGCGAAGTATGGTCGTCGTCTTCATCTTCTTCCTCCATCATCAGATTTTTCCTTAAATGGAAGAAACCAAACGAAACTCCGATCTTCTCCGTTCTCGTGTTTTCCTCTCTGGCTTTTATTGCTGGGATTGGGAATTTCTCACCGCTCTCTTGCTTTTTAGTTGCTGATTCTTTTTCCTTCGACTTTCTATTTCCAATCTTTCTTCTTCTCTTTGTGTATTAGATTATTTTTAGTTTTATTTTTCTGTGGTAAAATAAAAAAAGTTCGCCGGAG
Take B2: in the series with LUC, GFPER, TBF1-YFP (35S promoter, vs mutant uorfs (ATG to CTG)), the “suppression of cytosol-synthesized LUC and ER-synthesized GFPER” value was “largely suppress”. Also, in the series with LUC, GFPER, TBF1-YFP (LUC and GFPER), the mRNA levels entry is given as “without significantly affecting mRNA levels”. Moreover, in the series on LUC, GFPER, TBF1-YFP (vs 35S:uorfsTBF1-TBF1-YFP), the “cell death induced by overexpression of TBF1 (TBF1-YFP)” value is reported as “tight enough to prevent cell death”. In addition, the “translation of the LUC reporter in rice” value in the series on LUC reporter (35S:uORFsTBF1-LUC vs 35S:uorfsTBF1-LUC) was “could suppress translation of the reporter in rice”. Besides, in the series with LUC reporter (in vivo), the “LUC mRNA levels in rice” value is recorded as “without significantly influencing mRNA levels”.

B3: ZIK3: R-motif-dependent gene; 5′ leader sequence tested in dual luciferase reporter (nucleic acid, listed as Arabidopsis thaliana)
DNA: ACTTGTTTCCTTATATATTCTTCTCCCTTTAAACATTTAATCTTTTCCTCTTCTACCATCTCCACAAATTCCAAACATCTCTCTCTCTTTCTCTCTCACACACAAAATTGCAGAAGAAGAAGAGTC
modifications: listed as DNA, chemistry not fully specified
With B3, the “TE when PAB2 was co-expressed” value in the series with dual luciferase reporter was “lower TE”.
